Experimental data from patent US20250092426, “CAS ENDONUCLEASES AND RELATED METHODS” (Flagship Pioneering Innovations VII, LLC, published 2025).

Target: T1, CasEnd-22 (synthetic construct)
T1 chain: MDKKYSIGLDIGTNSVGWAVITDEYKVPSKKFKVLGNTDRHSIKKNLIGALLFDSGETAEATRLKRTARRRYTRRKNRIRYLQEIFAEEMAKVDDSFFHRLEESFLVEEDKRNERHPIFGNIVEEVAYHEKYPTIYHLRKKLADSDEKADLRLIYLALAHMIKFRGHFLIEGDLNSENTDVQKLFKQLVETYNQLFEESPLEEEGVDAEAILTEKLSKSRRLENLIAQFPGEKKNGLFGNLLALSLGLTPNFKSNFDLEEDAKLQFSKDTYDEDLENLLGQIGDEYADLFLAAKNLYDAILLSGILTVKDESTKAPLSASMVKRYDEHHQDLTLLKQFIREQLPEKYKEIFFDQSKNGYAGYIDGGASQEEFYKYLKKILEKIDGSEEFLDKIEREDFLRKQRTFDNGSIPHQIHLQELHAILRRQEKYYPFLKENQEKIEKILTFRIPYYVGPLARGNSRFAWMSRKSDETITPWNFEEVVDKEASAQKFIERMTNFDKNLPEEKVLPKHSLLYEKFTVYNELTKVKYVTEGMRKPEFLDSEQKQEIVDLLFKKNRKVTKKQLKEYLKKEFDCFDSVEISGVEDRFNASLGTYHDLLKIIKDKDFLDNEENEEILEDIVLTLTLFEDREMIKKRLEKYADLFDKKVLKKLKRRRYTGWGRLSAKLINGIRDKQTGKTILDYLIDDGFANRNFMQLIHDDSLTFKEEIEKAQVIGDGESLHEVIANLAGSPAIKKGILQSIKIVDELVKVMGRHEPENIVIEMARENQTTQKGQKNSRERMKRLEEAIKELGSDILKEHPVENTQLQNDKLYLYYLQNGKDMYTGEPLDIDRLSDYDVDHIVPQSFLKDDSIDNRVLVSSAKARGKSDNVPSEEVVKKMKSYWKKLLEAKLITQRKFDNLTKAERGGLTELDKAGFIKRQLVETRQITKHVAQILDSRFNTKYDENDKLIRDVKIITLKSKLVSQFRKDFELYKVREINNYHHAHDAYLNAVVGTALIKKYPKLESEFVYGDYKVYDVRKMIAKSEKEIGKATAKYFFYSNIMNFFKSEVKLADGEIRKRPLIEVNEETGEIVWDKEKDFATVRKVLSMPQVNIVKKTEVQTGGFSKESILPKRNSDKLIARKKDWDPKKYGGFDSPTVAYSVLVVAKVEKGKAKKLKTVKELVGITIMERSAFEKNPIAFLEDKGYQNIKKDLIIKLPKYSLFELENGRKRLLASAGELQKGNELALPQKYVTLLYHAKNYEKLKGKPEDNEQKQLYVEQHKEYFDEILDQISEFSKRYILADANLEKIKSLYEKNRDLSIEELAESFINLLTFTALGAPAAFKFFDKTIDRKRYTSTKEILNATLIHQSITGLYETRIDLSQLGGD
Experiment: cell_activity; +++; HEK293T; PAM not stated
In short: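 Editing activity was scored as the fraction of GFP+ cells on day 4 by flow cytometry. BFP-expressing HEK293T cells (250,000) received by nucleofection 200 ng plasmid for the RT-Cas fusion protein and 200 ng template RNA plasmid designed to convert BFP to GFP.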

B1: BFP-to-GFP template RNA ; BFP reporter protospacer (ssRNA ; dsDNA)
RNA: GCCGAAGCACUGCACGCCGUGUUUUAGAGCUAGAAAUAGCAAGUUAAAAUAAGGCUAGUCCGUUAUCAACUUGAAAAAGUGGCACCGAGUCGGUGCACCCUGACGUACGGCGUGCAGUGCUU
DNA 1: GCCGAAGCACTGCACGCCGT
DNA 2: ACGGCGTGCAGTGCTTCGGC
  activity: ≥ 100 % of reference
